Results as given in patent US20200368361A1.

Tests used:
[1] = molecular target: endogenously expressed human MSR1 on PMA-treated THP-1 cells (human) (UniProt P21757); test: ECL cell binding, PMA-treated THP-1
[2] = molecular target: human MSR1 endogenously expressed on PMA-differentiated THP-1 cells (human) (UniProt P21757); test: imaging of PMA-differentiated THP-1 cells, 10 ug/mL antibody, Alexa 488 secondary
Chain of human MSR1 endogenously expressed on PMA-differentiated THP-1 cells (human) (P21757 whole entry): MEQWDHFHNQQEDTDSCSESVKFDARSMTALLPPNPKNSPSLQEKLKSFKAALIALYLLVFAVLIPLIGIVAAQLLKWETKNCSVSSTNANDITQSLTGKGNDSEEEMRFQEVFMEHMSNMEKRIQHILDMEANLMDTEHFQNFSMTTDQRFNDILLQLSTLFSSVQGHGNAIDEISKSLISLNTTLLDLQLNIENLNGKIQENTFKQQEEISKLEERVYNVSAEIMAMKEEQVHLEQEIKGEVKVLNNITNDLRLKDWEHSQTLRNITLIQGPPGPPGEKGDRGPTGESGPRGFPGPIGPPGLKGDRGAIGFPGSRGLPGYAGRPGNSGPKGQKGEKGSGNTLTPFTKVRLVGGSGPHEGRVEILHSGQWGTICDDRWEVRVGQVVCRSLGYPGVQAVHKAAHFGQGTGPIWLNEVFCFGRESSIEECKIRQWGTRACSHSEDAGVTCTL

Chain of endogenously expressed human MSR1 on PMA-treated THP-1 cells (human) (P21757 whole entry): as above

Row | Binder | binding signal ratio to isotype control (11 nM) [1] [fold] | Total Binding at 4° C. [2] [RFU] | Total Binding at 37° C. [2] [RFU]
1 | H1H27734P-N297Q (antibody, human IgG1, V domains shown) VH: EVQLVESRGGLVQPGGSLRLSCAASGFTFSSYAMSWVRQAPGKGLEWVSAISGSGGSTFYADSVKGRFTISRDNSKNTVYLQMNSLRAEDTAVYYCAKALVLRFLEWLGDYWGQGTLVTVSS VL: DIQMTQSPSTLSASVGDRVTITCRASQSISSWLAWFQQKPGKAPKLLIYKASSLESGVPSRFSGSGSGTEFTLTISSLQPDDFATYYCQQYKSYWTFGQGTKVEIKR | 21 | 483000 | 1.15e+06
2 | H1H21227N-N297D (antibody, human IgG1, V domains shown) VH: QVQLVQSGAEVKKPGASVKVSCKVSGYTLTELSIHWVRQVPGKGLEWMGGFDPEEGETIFAQEFRDRVTLTEDTSPDTAYMELSSLKSEDAAVYYCTTPRYCNNGICYDYWGQGTLVTVSS VL: DIQMTQSPSSLSASVGDRVTITCRASQSISNYLNWYQQKPGKAPKLLIYTASSLQSGVPSRFSGSGSGTDFTLTISSLQTEDFATYYCQQSYSNFPITFGQGTRLEIKR | 6 |  | 
3 | H1H27747P-N297Q (antibody, human IgG1, V domains shown) VH: QVQLVESGGAVVQPGRSLRLSCAASGFTFSYYGMHWVRQAPGKGLEWVAVISYDGSKKYYADSVKGRFTISRDNSKNTLYLQMNSLRAEDTAVYYCAKDLTVDFYYGMDVWGQGTTVTVSS VL: DIQMTQSPSSVSASVGDRVTITCRASQGISSWLAWYQQKPGKAPKLLIYATSSLQSGAPSRFSGSGSGTDFTLTISSLQPEDFATYFCQQANSFPYTFGQGTKLEIKR | 13 | 2.52e+06 | 5.92e+06
4 | H1H27754P-N297Q (antibody, human IgG1, V domains shown) VH: EVQLVESGGGLVQPGGSLRLSCAASGFTFRTYAMTWVRQAPGKGLDWVSAITGDGGNTYYADSVKGRFTISRDNSKNTLYLQMNSLRAEDTAIYYCAKDQRFSFALYYFDYWGQGTLVTVSS VL: DIQMTQSPSSVSASVGDRVTITCRASQGISSWLAWYQQKPGNAPKLLIYAAFSLQSGVPSRFSGSGSGTDFTLTISSLQPEDFATYYCQQANNFPWTFGQGTKVEIKR | 66 | 3.08e+06 | 7.16e+06
5 | H1H27729P-N297Q (antibody, human IgG1, V domains shown) VH: QVQLVESGGGLVKPGGSLRLSCAASGFIFSDYYMSWIRQAPGKGLEWVSYISSSGTTIYGDSVKGRFTMSRDNAKNSLYLQMNSLRAEDTAVYYCARNYALFDYWGQGTLVTVSS VL: DIQMTQSPSSLSASVGDRVTITCQASQDISKYLNWYQQKPGKAPKLLIYYTSNLETGVPSRFSGSGSGTDFTFTISSLQPEDIATYYCHQSDYLPFTFGPGTKVDIKR | 8 | 1.93e+06 | 6.61e+06
6 | H2aM25695N (antibody, mouse IgG2a, V domains shown) VH: QVQLQESGPGLVKPSETLSLTCTVTGGSISRNYWSWIRQPPGKGLEWIGYIYYSGSINYNPSLKSRVTISVDMSKNQFSLKLNSVTAADTAVYYCARDRWNWKYGMDVWGQGTTVIVSS VL: EIVLTQSPGTLSLSPGERATLSCRASQTVRNSYLAWYHQKPGQAPRLLIYGASSRATGIPDRFSGSGSGTDFTLTISRLEPEDFAVYYCQQYGSSYWTFGQGTKMEIKR | 8 |  | 
7 | H2aM21229N (antibody, mouse IgG2a, V domains shown) VH: EVQLVESGGGLVKPGGSLRLSCAASGFTFSRYSMNWVRQAPGKGLEWVSSISSSSSYIYYGDTVKGRFTISRDNAKKSLYLQMNSLRAEDTAVYYCVRDRGQLVLYFDYWGQGTLVTVSS VL: DIQMTQSPASLSTSIRDRVTITCRASLSISSFLNWFQQRPGKAPKLLIYVASNLQSGVPSRFSDSGSGTDFTLTISSLQPEDFATYYCQQNYSTPPITFGQGTRLEIK | 56 |  | 

Further lines, results first:

Row | binding signal ratio to isotype control (11 nM) [1] [fold] | Total Binding at 4° C. [2] [RFU] | Total Binding at 37° C. [2] [RFU] | Binder
8 | 9 | 3.7e+06 | 5.61e+06 | H1H27739P-N297Q (antibody, human IgG1, V domains shown) VH: EVQLVESGGGLVQPGGSLRLSCTASGFTFSSYAMSWVRQAPGKGLEWVSAISGTGSSTYFTDSVKGRFAISRDNSKNTLYLQMNSLRAEDTAVYYCAKDGEWLSTVTLFDYWGQGTLVTVSS VL: EIVMTQSPATLSVSPGERATLSCRASQSVSSNLAWYQQKPGQAPRLLIYGASTRATGIPARFSGSGSGTDFTLTISSLQSEDFALYYCQQYFIWPPHPTFGPGTKVDIKR
9 | 5 | 1.8e+06 | 4.11e+06 | H1H21227N-N297Q (antibody, human IgG1, V domains shown) VH: QVQLVQSGAEVKKPGASVKVSCKVSGYTLTELSIHWVRQVPGKGLEWMGGFDPEEGETIFAQEFRDRVTLTEDTSPDTAYMELSSLKSEDAAVYYCTTPRYCNNGICYDYWGQGTLVTVSS VL: DIQMTQSPSSLSASVGDRVTITCRASQSISNYLNWYQQKPGKAPKLLIYTASSLQSGVPSRFSGSGSGTDFTLTISSLQTEDFATYYCQQSYSNFPITFGQGTRLEIKR
10 | 45 |  |  | H1H21231N-N297Q (antibody, human IgG1, V domains shown) VH: EVQLVESGGGLVQPGGSLRLSCAASGFTFSDHYMDWVRQAPGKGLEWVGRTRNKANSHTTEYTASVTGRFTISRDDSRNSLYLQMNSLKTEDTAVYYCVRAGIIGTLFDYWGQGTLVTVSS VL: DIQMTQFPSSLSASVGDRVTITCRASQSISSFLNWFQQKPGKAPKFLIYAASSLQSGVPSRFSGSGSGTDFTLTISSLQPEDFATYYCQQSYSSPPITFGQGTRLEIKR
11 | 42 |  |  | H1H21231N (antibody, human IgG1, V domains shown) VH: EVQLVESGGGLVQPGGSLRLSCAASGFTFSDHYMDWVRQAPGKGLEWVGRTRNKANSHTTEYTASVTGRFTISRDDSRNSLYLQMNSLKTEDTAVYYCVRAGIIGTLFDYWGQGTLVTVSS VL: DIQMTQFPSSLSASVGDRVTITCRASQSISSFLNWFQQKPGKAPKFLIYAASSLQSGVPSRFSGSGSGTDFTLTISSLQPEDFATYYCQQSYSSPPITFGQGTRLEIKR
12 | 7 |  |  | H1H21227N (antibody, human IgG1, V domains shown) VH: QVQLVQSGAEVKKPGASVKVSCKVSGYTLTELSIHWVRQVPGKGLEWMGGFDPEEGETIFAQEFRDRVTLTEDTSPDTAYMELSSLKSEDAAVYYCTTPRYCNNGICYDYWGQGTLVTVSS VL: DIQMTQSPSSLSASVGDRVTITCRASQSISNYLNWYQQKPGKAPKLLIYTASSLQSGVPSRFSGSGSGTDFTLTISSLQTEDFATYYCQQSYSNFPITFGQGTRLEIKR
13 | 25 | 1.95e+06 | 5.45e+06 | H1H21234N-N297Q (antibody, human IgG1, V domains shown) VH: QVQLQESGPGLVKPSETLSLTCTVTGGSISRNYWSWIRQPPGKGLEWIGYIYYSGSIDYNPSLKSRVTISVDTSKNQFSLKLSSMTAADTAVYYCARDRWNWKYGMDVWGQGTTVIVSS VL: EIVLTQSPGTLSLSPGERATLSCRASQTVRNNYLAWYHQKPGQAPRLLIYGASSRATGIPDRFSGSGSGTDFTLTISRLEPEDFTVYYCHQYGNSPWTFGQGTKMEIKR
14 | 18 |  |  | H1H21234N (antibody, human IgG1, V domains shown) VH: QVQLQESGPGLVKPSETLSLTCTVTGGSISRNYWSWIRQPPGKGLEWIGYIYYSGSIDYNPSLKSRVTISVDTSKNQFSLKLSSMTAADTAVYYCARDRWNWKYGMDVWGQGTTVIVSS VL: EIVLTQSPGTLSLSPGERATLSCRASQTVRNNYLAWYHQKPGQAPRLLIYGASSRATGIPDRFSGSGSGTDFTLTISRLEPEDFTVYYCHQYGNSPWTFGQGTKMEIKR
